Test results from US10556936B2, “Immunogenic proteins and fragments thereof from allergenic mites” (ALK-ABELLÓ A/S, priority 2016, dated 2020).

Tests used:
Type in all cases: cell-based, human
[1] = tested on: basophils in whole blood from HDM allergic donors; assay: Basophil Activation Test (BAT); details: blood from HDM allergic individuals (n=14)
Method: Basophil Activation Test (BAT) was used as a predictive in vitro assay for indication of safety/immediate hypersensitivity reactions. The BAT assay is a widely used diagnostic test that is also used for evaluation of allergenicity of allergen derived components. In short: whole blood from HDM allergic donors was stimulated for 1 h with the proteins, and the increased expression of activation markers on the surface of basophils were measured by flow cytometry. The BAT test was carried out using different concentrations of the proteins and the allergens Der p 2 and Der p 1 was used as controls and tested in the same concentration rates.
(§1) This example relates to the further testing of immunogenicity of the proteins identified in Example 1. Their ability to react with IgE antibodies in HDM allergic individuals, to stimulate in vitro T cell proliferation of HDM allergic individuals and non-allergics, and to stimulate ex vivo cytokine production of HDM allergic individuals and non-allergics. The following tests were used: • Basophil Activation Test (BAT) was used as a predictive in vitro assay for indication of safety/immediate hypersensitivity reactions. BAT test was carried out using blood from HDM allergic individuals (n=14), and by use of different concentrations of test proteins or the major house dust mite allergens (Der p 1, Der f 1, Der p 2 or Der f 2, e.g. a concentration of 1, 10, 100 or 1000 ng/ml. • In vitro T cell reactivity determined in T cell lines obtained from HDM allergic individuals (n=30) and non-allergics (n=8): Determined by establishment of HDM specific T-cell lines according to standard methods. In short, PMBCs from HDM allergic donors were cultured for 3 weeks in the presence of house dust mite allergen extract. The responses to proteins at a concentration of 0.5 ug/ml or 2 ug/ml of the test protein or the major house dust mite allergens (Der p 1, Der f 1, Der p 2 or Der f 2) were assessed by proliferation in a standard 72 h T cell proliferation assay, as described in Henmar H et al., Clin Exp Immunol 2008; 153(3):316-23. […]. • Ex vivo stimulation of PBMC cells obtained from mite allergic patients (n=16) and non-allergics (n=6): Determined by measuring the production of the cytokines; IFN-gamma, IL-9, IL-10, IL-17 and IL-31 following stimulation with test protein in concentration up to 10 ug/ml. Freshly isolated PBMC 5×10^6/ml were cultured with a test protein for 5 days and cell supernatant were harvested and stored at −80° C. Cytokines of the supernatants were measured using ProcartaPlex Multiplex Immunoassays with MAGPIX Multiplex Reader according manufactory protocol.

[2] = tested on: T cell lines obtained from HDM allergic individuals and non-allergics; assay: In vitro T cell proliferation test in T cell lines (Example 3); details: 0.5 or 2 ug/ml, 72 h; for % responders of in-vitro T cell proliferation test, Allergic: T cell lines from HDM allergic individuals (n=30); for % responders of in-vitro T cell proliferation test, Non-allergics: T cell lines from non-allergics (n=8)
Source text: as §1

[3] = tested on: PBMC cells obtained from mite allergic patients and non-allergics; assay: Ex vivo stimulation of PBMC: cytokine production (IFN-gamma, IL-9, IL-10, IL-17, IL-31)
Source text: as §1

B1: A016: house dust mite protein; SEQ ID NO: 28 (Der f), 29 (Der p) (protein)
chain: MVKIGINGFGRIGRLVLRAAIKKGVEVAAINDPFLDVKYMVYMFKFDSTHGRYQGEVKEEGGLLVVDGQKIQVFQERNPAEIPWGKVGADYVVESTGVFTTIEKAKAHLAGGAKKVIISAPSADAPMYVMGVNHDKYDPKQQIISNASCTTNCLAPLAKVINDKFGIENGLMTTVHAITATQKTVDGPSGKLWRDGRGAGQNIIPASTGAAKAVGKVIPELNGKLTGMALRVPVPDVSVVDLTVTLKNPASYDEIKAAVKAAAESDHWKGILEYTDEEVVSSDFISDTHSSIFDAKAGIALTPTFVKLIAWYDNEFGYSNRVVDLIKYVASK
- # of individuals of 14 with positive BAT test ([1]; 1 ng/ml): 0
- # of individuals of 14 with positive BAT test ([1]; 10 ng/ml): 0
- # of individuals of 14 with positive BAT test ([1]; 100 ng/ml): 0
- # of individuals of 14 with positive BAT test ([1]; 1000 ng/ml): 0
- % responders of in-vitro T cell proliferation test, Allergic [2]: 7%
- % responders of in-vitro T cell proliferation test, Non-allergics [2]: 0%
- % HDM allergic individuals with cytokine production in ex-vivo T cell assay IL-5 [3]: 6%
- % HDM allergic individuals with cytokine production in ex-vivo T cell assay IL-9 [3]: 0%
- % HDM allergic individuals with cytokine production in ex-vivo T cell assay IL-10 [3]: 25%
- % HDM allergic individuals with cytokine production in ex-vivo T cell assay IL-13 [3]: 13%
- % HDM allergic individuals with cytokine production in ex-vivo T cell assay IL-17 [3]: 13%
- % HDM allergic individuals with cytokine production in ex-vivo T cell assay IL-31 [3]: 0%
- % HDM allergic individuals with cytokine production in ex-vivo T cell assay INF-g [3]: 6%
- % non-allergic individuals with cytokine production in ex-vivo T cell assay IL-5 [3]: 0%
- % non-allergic individuals with cytokine production in ex-vivo T cell assay IL-9 [3]: 0%
- % non-allergic individuals with cytokine production in ex-vivo T cell assay IL-10 [3]: 0%
- % non-allergic individuals with cytokine production in ex-vivo T cell assay IL-13 [3]: 0%
- % non-allergic individuals with cytokine production in ex-vivo T cell assay IL-17 [3]: 17%
- % non-allergic individuals with cytokine production in ex-vivo T cell assay IL-31 [3]: 0%
- % non-allergic individuals with cytokine production in ex-vivo T cell assay INF-g [3]: 0%

B2: A018: house dust mite protein; SEQ ID NO: 5 (Der f), 6 (Der p), 314 (Blo t) (protein)
chain: MVKAVVVLKGDPNVSGTIFFEQQDNGPVKVTGSVQGLKPGLHGFHVHEFGDNTNGCTSAGAHYNPLNKTHGAPNDEERHVGDLGNIEANDKGVANVVIEDSLISLTGEKSIVGRSLVVHADPDDLGRGGHELSKTTGNAGGRLVCGVIGVTK
- # of individuals of 14 with positive BAT test ([1]; 1 ng/ml): 0
- # of individuals of 14 with positive BAT test ([1]; 10 ng/ml): 0
- # of individuals of 14 with positive BAT test ([1]; 100 ng/ml): 0
- # of individuals of 14 with positive BAT test ([1]; 1000 ng/ml): 0
- % responders of in-vitro T cell proliferation test, Allergic [2]: 0%
- % responders of in-vitro T cell proliferation test, Non-allergics [2]: 0%
- % HDM allergic individuals with cytokine production in ex-vivo T cell assay IL-5 [3]: 0%
- % HDM allergic individuals with cytokine production in ex-vivo T cell assay IL-9 [3]: 6%
- % HDM allergic individuals with cytokine production in ex-vivo T cell assay IL-10 [3]: 56%
- % HDM allergic individuals with cytokine production in ex-vivo T cell assay IL-13 [3]: 13%
- % HDM allergic individuals with cytokine production in ex-vivo T cell assay IL-17 [3]: 44%
- % HDM allergic individuals with cytokine production in ex-vivo T cell assay IL-31 [3]: 6%
- % HDM allergic individuals with cytokine production in ex-vivo T cell assay INF-g [3]: 19%
- % non-allergic individuals with cytokine production in ex-vivo T cell assay IL-5 [3]: 0%
- % non-allergic individuals with cytokine production in ex-vivo T cell assay IL-9 [3]: 0%
- % non-allergic individuals with cytokine production in ex-vivo T cell assay IL-10 [3]: 67%
- % non-allergic individuals with cytokine production in ex-vivo T cell assay IL-13 [3]: 17%
- % non-allergic individuals with cytokine production in ex-vivo T cell assay IL-17 [3]: 83%
- % non-allergic individuals with cytokine production in ex-vivo T cell assay IL-31 [3]: 0%
- % non-allergic individuals with cytokine production in ex-vivo T cell assay INF-g [3]: 33%

B3: A017: house dust mite protein; SEQ ID NO: 21 (Der f), 25 (Der p), 313 (Blo t) (protein)
chain: MSSSSGKKYDFSGKVALVTGSSSGIGAAIALQFAQYGAQVTITGRDAAALESVAKRIEAESGHQPLQIVGNLLDQSLPAKLIDGTISKYGRLDFLVNNAGFSTQHRDIHDEKLMEAFDQVYGLNVRAVVQLSQLAATHLEKSKGNIINISSNLSMMPVHIIYSSSKAALDMITKTMAMEFGKKGVRVNSINPGPVATQFMRSLGMPVTFLKENEEFVKELTLLKFVAQPVEIANLASFLASDDARNMTGSIVVNDTGSLLAPRVDFKKLDEIKKK
- # of individuals of 14 with positive BAT test ([1]; 1 ng/ml): 0
- # of individuals of 14 with positive BAT test ([1]; 10 ng/ml): 0
- # of individuals of 14 with positive BAT test ([1]; 100 ng/ml): 0
- # of individuals of 14 with positive BAT test ([1]; 1000 ng/ml): 0
- % responders of in-vitro T cell proliferation test, Allergic [2]: 7%
- % responders of in-vitro T cell proliferation test, Non-allergics [2]: 0%
- % HDM allergic individuals with cytokine production in ex-vivo T cell assay IL-5 [3]: 0%
- % HDM allergic individuals with cytokine production in ex-vivo T cell assay IL-9 [3]: 0%
- % HDM allergic individuals with cytokine production in ex-vivo T cell assay IL-10 [3]: 25%
- % HDM allergic individuals with cytokine production in ex-vivo T cell assay IL-13 [3]: 0%
- % HDM allergic individuals with cytokine production in ex-vivo T cell assay IL-17 [3]: 13%
- % HDM allergic individuals with cytokine production in ex-vivo T cell assay IL-31 [3]: 0%
- % HDM allergic individuals with cytokine production in ex-vivo T cell assay INF-g [3]: 6%
- % non-allergic individuals with cytokine production in ex-vivo T cell assay IL-5 [3]: 0%
- % non-allergic individuals with cytokine production in ex-vivo T cell assay IL-9 [3]: 0%
- % non-allergic individuals with cytokine production in ex-vivo T cell assay IL-10 [3]: 33%
- % non-allergic individuals with cytokine production in ex-vivo T cell assay IL-13 [3]: 0%
- % non-allergic individuals with cytokine production in ex-vivo T cell assay IL-17 [3]: 17%
- % non-allergic individuals with cytokine production in ex-vivo T cell assay IL-31 [3]: 0%
- % non-allergic individuals with cytokine production in ex-vivo T cell assay INF-g [3]: 0%

B4: A014: house dust mite protein; SEQ ID NO: 32 (Der f), 33 (Der p) (protein)
chain: IEQVHIALGSNETEIIVTWTEPHKHDDKTSDAVVYYGQAKSSFDQKVKAISEYFKDDKTKYTTYRALLTGLLPGTEYHYRIQMDDLESSIFEFKTLKTGEENWLPRFAIYGDLGYVNEQSLPYLKKDVEQNLFDVIFHIGDFAYDLNDEHGKVGHHFMRSIEPVASKVAYMTCPGNHERHDNFSHYDSRFSMIGDRSQPIHSDKLNKRLNNHFHSMTIGPATIILFSTEYYYYTKYGWQQIEHQYRWLEQELKRANENRQKHPWIIVMGHRPLYCLKMGDDSCDHQTMERKEIRQGIRMHDEGERQYGLEDLFFKYGVDIQFYGHEHFYARLFPIYKYKMYNGTKSKNPYDHPGAPIHITTGSAGNKELHPEFNHLNDWVAEHFYDYGYTRLMFEDKYRIRLQQISDDQHGKVLDEIEIVKSSPQPHWMNVEHH
- # of individuals of 14 with positive BAT test ([1]; 1 ng/ml): 0
- # of individuals of 14 with positive BAT test ([1]; 10 ng/ml): 0
- # of individuals of 14 with positive BAT test ([1]; 100 ng/ml): 0
- # of individuals of 14 with positive BAT test ([1]; 1000 ng/ml): 0
- % responders of in-vitro T cell proliferation test, Allergic [2]: 43%
- % responders of in-vitro T cell proliferation test, Non-allergics [2]: 0%
- % HDM allergic individuals with cytokine production in ex-vivo T cell assay IL-5 [3]: 6%
- % HDM allergic individuals with cytokine production in ex-vivo T cell assay IL-9 [3]: 0%
- % HDM allergic individuals with cytokine production in ex-vivo T cell assay IL-10 [3]: 25%
- % HDM allergic individuals with cytokine production in ex-vivo T cell assay IL-13 [3]: 6%
- % HDM allergic individuals with cytokine production in ex-vivo T cell assay IL-17 [3]: 31%
- % HDM allergic individuals with cytokine production in ex-vivo T cell assay IL-31 [3]: 0%
- % HDM allergic individuals with cytokine production in ex-vivo T cell assay INF-g [3]: 13%
- % non-allergic individuals with cytokine production in ex-vivo T cell assay IL-5 [3]: 0%
- % non-allergic individuals with cytokine production in ex-vivo T cell assay IL-9 [3]: 0%
- % non-allergic individuals with cytokine production in ex-vivo T cell assay IL-10 [3]: 33%
- % non-allergic individuals with cytokine production in ex-vivo T cell assay IL-13 [3]: 0%
- % non-allergic individuals with cytokine production in ex-vivo T cell assay IL-17 [3]: 33%
- % non-allergic individuals with cytokine production in ex-vivo T cell assay IL-31 [3]: 0%
- % non-allergic individuals with cytokine production in ex-vivo T cell assay INF-g [3]: 33%
